Measured values as given in patent publication US12209142B2, “SARS-CoV-2 epitope-targeted peptide immunostimulants” (Institute for Systems Biology, priority 2020, dated 2025).
Entries after “also recorded” stand apart in the source; their conditions may differ. Bridges are numbered along the chain shown (N, C = ends). Where no end group is shown, it is not given here. [ ]: non-standard residue; d: D form. Lys(N3) = [N-]=[N+]=NCCCC[C@H](N)C(=O)O; Pra = C#CC[C@H](N)C(=O)O

Key:
[1] = target: T1, full-length recombinant MrkA protein (Klebsiella pneumoniae, UniProt P12267); assay: Sandwich ELISA of PCC binding to full-length MrkA; conditions: for binding / affinity to full-length MrkA protein (ELISA signal): compared with cy(LLFFF); for affinities to MrkA (likely): ELISA, full-length recombinant MrkA
T1 construct: purchased MyBiosource MBS1248970
T1 sequence (P12267 23-202): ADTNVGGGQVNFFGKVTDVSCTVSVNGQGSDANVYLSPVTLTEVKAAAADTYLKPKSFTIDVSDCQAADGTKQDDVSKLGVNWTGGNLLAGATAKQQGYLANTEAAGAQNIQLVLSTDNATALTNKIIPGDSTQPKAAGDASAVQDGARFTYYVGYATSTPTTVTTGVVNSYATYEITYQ
Protocol: The screen yielded 26 hits (Table 2) that were sequenced, scaled up, and tested for binding to full-length recombinant MrkA in solution by single-point sandwich Enzyme-linked immunoassays (ELISAs) (FIG. 8). HPraGly is present before X1 in each peptide and Az4 follows X5 in each peptide.
An alanine scan was performed to establish which residues of cy(LLFFF) (SEQ ID NO:5) contribute most to MrkA binding. In this assay, a sandwich ELISA is used to quantify the affinity of several cy(LLFFF) (SEQ ID NO:5) analogues, in which one residue is substituted with an alanine, towards full-length MrkA protein. The ELISA results in FIG. 4 show lower signal for every alanine-substituted cy(LLFFF) (SEQ ID NO:5) analogue compared to unmodified cy(LLFFF) (SEQ ID NO:5), establishing that the native compound has the highest affinity. […] Thus, these two C-terminal phenylalanine residues (FIG. 3A, arrows in inset) play critical roles in MrkA binding, and are targets for modifications to improve binding. Another important detail of these alanine scan results is a strong dependence of MrkA binding on the residue position, independent of residue type. For example, cy(LLAFF) (SEQ ID NO:9) and cy(LLFFA) (SEQ ID NO:11) have very different binding affinities, despite having the same phenylalanine-to-alanine substitution.
In vitro ELISA assays. ELISA assays for MrkA-binding and epitope selectivity were performed on clear NeutrAvidin Coated High Capacity Plates (ThermoFisher, 15507). The buffer used for all washes and to dissolve all compounds was TBST+0.1% BSA (TBS+0.05% Tween 20+0.1% BSA, pH 7.3) and, unless otherwise stated, steps were conducted at room temperature. Each wash involved a brief 20 s agitation, and all conjugation, blocking, and incubation steps were performed with gentle agitation over the entire stated time period. The general procedure for an ELISA assay was: wash 3×200 μL/well, conjugate with 2 μM of biotinylated compound for 2 h at room temperature (100 μL/well), wash 3×200 μL/well, blocked overnight in 5 wt % milk at 4° C., wash […] with wash buffer, incubate with titrated compound (e.g., MrkA or epitope) for 1 h, […], incubate with primary antibody […] for 1 h (100 μL/well), wash 3×200 μL/well, incubate with 1:2,000 anti-rabbit secondary antibody-horseradish peroxidase conjugate (Cell signaling Technologies, 7074S) for 1 h, 3×200 μL/well, develop with the Microwell Peroxidase Substrate System (2-C) (SeraCare, 5120-0047) using 100 μL/well for 1-40 minutes, and quench using 1 M H2SO4 (aq.) at 100 μL/well. For MrkA binding assays, biotinylated PCCs were conjugated to the well surface, recombinant MrkA with an N-terminal 6×His-SUMO-tag (MyBiosource, MBS1248970) was titrated at the desired concentration, and the primary antibody was His-tag antibody, pAb, Rabbit (Genscript, A00174) at a 1:5,000 dilution. For epitope selectivity assays, biotinylated SynEps were conjugated, DNP-conjugated AR-PCCs were titrated at a desired concentration, and the primary antibody was anti-DNP antibody produced in Rabbit (Sigma-Aldrich, D9656) at a 1:8,000 dilution. […] For binding tests in the context of mouse sera, the “titrated compound” described in the steps above was dispersed in a solution containing the desired concentration of mouse serum.

[2] = system: MrkA-expressing K. pneumoniae cells; assay: Whole-cell ELISA of biotinylated PCC binding
[3] = strain BAA 1705, PCC 5 μM or lower

Row | Substance | binding / affinity to full-length MrkA protein (ELISA signal) [1] | affinities to MrkA (likely) [1] [µM] | also measured
1 | cy(ALFFF): alanine-substituted cy(LLFFF) analogue ([Lys(N3)]ALFFFX; triazole 1-7; not fully specified (residue 7); printed as cy(ALFFF)) | Modestly lower binding |  | 
2 | cy(GVHRL): additional MrkA ligand with lower affinity (XGVHRL[Lys(N3)]; triazole 1-7; not fully specified (residue 1); printed as cy(GVHRL)) | lower affinities to MrkA | ~1 | 
3 | cy(LAFFF): alanine-substituted cy(LLFFF) analogue ([Lys(N3)]LAFFFX; triazole 1-7; not fully specified (residue 7); printed as cy(LAFFF)) | Modestly lower binding |  | 
4 | cy(LLAFF): alanine-substituted cy(LLFFF) analogue ([Lys(N3)]LLAFFX; triazole 1-7; not fully specified (residue 7); printed as cy(LLAFF)) | Modestly lower binding |  | 
5 | cy(LLFFA): control compound differing from cy(LLFFF) by a single phenyl moiety ([Lys(N3)]LLFFA[Pra]; triazole 1-7) |  |  | whole-cell ELISA signal, MrkA-knockout KPPR1 ([2]; MrkA/B/C knockout KPPR1): ELISA intensities comparable to baseline; whole-cell ELISA signal at high PCC concentration, LB or G-CAA ([2]; strain BAA 1705, 50 μM PCC): strong and comparable ELISA signals; whole-cell ELISA 450 nm absorbance, cells cultured in G-CAA (high MrkA) [2, 3]: near-baseline absorbances; whole-cell ELISA 450 nm absorbance, cells cultured in LB (low MrkA) [2, 3]: near-baseline absorbances; whole-cell ELISA signal, wild type KPPR1 ([2]; wild type KPPR1 (ATCC 43816), G-CAA media, 5 μM down to 5 nM): much lower intensities; also recorded: Much lower binding
6 | cy(TTFFF): additional MrkA ligand with lower affinity ([Lys(N3)]TTFFFX; bridge 1-7; not fully specified (residue 7, bridges); printed as cy(TTFFF)) | lower affinities to MrkA | ~1 | 
7 | cy(YRHLG): additional MrkA ligand with lower affinity (XYRHLG[Lys(N3)]; bridge 1-7; not fully specified (residue 1, bridges); printed as cy(YRHLG)) | lower affinities to MrkA | ~1 | 
